Target: T1, purified DARPP-32
T1 sequence (Q9UD71 1-204, species assumed, looked up): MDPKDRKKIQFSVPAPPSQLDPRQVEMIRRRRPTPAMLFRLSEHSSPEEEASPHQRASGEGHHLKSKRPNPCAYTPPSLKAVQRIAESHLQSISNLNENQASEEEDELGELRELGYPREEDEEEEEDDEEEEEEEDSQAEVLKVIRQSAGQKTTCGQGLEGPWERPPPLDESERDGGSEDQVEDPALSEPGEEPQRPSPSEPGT

B1: Myc-tagged MM2-CK1ε (S323A/T325A/T334A/T337A/S368A/S405A/T407A/S408A), expressed in N2a cells from pCS-Myc-MM2-CK1ε (protein)
chain: MELRVGNKYRLGRKIGSGSFGDIYLGANIASGEEVAIKLECVKTKHPQLHIESKFYKMMQGGVGIPSIKWCGAEGDYNVMVMELLGPSLEDLFNFCSRKFSLKTVLLLADQMISRIEYIHSKNFIHRDVKPDNFLMGLGKKGNLVYIIDFGLAKKYRDARTHQHIPYRENKNLTGTARYASINTHLGIEQSRRDDLESLGYVLMYFNLGSLPWQGLKAATKRQKYERISEKKMSTPIEVLCKGYPSEFSTYLNFCRSLRFDDKPDYSYLRQLFRNLFHRQGFSYDYVFDWNMLKFGAARNPEDVDRERREHEREERMGQLRGAAARALPPGPPAGAAANRLRSAAEPVASTPASRIQPAGNTSPRAIARVDRERKVSMRLHRGAPANVSSSDLTGRQEVSRIPAAQAAVPFDHLGK
kinase activity of the immunoprecipitated enzyme with DARPP-32 as substrate, against HA-CK1ε: approximately 2-fold more active than HA-CK1ε in the absence of DHPG

Reference: patent US20060223158
